Results from patent publication US20040229309A1 (KUMAMOTO TECHNOLOGY AND INDUSTRY FOUNDATION, published 2004).

Target: T1, mouse GANP protein (mouse, UniProt Q9WUU9 1-1971)
T1 construct: Endogenous 210-kD protein in lysates, cytoplasmic and nuclear fractions of WEHI-231 cells and in mouse spleen B cells; The deduced polypeptide has 1971 amino acids; It is phosphorylated at serine/threonine in the in vitro kinase reactions; also called GANP antigen; 29-15 Ag
Assay: co-immunoprecipitation from WEHI-231 lysate, Western blot with anti-MCM3; in vitro kinase assay and V8 cleavage mapping

T1 sequence (Q9WUU9 other isoform, or with tags, fused parts or gaps limits assumed): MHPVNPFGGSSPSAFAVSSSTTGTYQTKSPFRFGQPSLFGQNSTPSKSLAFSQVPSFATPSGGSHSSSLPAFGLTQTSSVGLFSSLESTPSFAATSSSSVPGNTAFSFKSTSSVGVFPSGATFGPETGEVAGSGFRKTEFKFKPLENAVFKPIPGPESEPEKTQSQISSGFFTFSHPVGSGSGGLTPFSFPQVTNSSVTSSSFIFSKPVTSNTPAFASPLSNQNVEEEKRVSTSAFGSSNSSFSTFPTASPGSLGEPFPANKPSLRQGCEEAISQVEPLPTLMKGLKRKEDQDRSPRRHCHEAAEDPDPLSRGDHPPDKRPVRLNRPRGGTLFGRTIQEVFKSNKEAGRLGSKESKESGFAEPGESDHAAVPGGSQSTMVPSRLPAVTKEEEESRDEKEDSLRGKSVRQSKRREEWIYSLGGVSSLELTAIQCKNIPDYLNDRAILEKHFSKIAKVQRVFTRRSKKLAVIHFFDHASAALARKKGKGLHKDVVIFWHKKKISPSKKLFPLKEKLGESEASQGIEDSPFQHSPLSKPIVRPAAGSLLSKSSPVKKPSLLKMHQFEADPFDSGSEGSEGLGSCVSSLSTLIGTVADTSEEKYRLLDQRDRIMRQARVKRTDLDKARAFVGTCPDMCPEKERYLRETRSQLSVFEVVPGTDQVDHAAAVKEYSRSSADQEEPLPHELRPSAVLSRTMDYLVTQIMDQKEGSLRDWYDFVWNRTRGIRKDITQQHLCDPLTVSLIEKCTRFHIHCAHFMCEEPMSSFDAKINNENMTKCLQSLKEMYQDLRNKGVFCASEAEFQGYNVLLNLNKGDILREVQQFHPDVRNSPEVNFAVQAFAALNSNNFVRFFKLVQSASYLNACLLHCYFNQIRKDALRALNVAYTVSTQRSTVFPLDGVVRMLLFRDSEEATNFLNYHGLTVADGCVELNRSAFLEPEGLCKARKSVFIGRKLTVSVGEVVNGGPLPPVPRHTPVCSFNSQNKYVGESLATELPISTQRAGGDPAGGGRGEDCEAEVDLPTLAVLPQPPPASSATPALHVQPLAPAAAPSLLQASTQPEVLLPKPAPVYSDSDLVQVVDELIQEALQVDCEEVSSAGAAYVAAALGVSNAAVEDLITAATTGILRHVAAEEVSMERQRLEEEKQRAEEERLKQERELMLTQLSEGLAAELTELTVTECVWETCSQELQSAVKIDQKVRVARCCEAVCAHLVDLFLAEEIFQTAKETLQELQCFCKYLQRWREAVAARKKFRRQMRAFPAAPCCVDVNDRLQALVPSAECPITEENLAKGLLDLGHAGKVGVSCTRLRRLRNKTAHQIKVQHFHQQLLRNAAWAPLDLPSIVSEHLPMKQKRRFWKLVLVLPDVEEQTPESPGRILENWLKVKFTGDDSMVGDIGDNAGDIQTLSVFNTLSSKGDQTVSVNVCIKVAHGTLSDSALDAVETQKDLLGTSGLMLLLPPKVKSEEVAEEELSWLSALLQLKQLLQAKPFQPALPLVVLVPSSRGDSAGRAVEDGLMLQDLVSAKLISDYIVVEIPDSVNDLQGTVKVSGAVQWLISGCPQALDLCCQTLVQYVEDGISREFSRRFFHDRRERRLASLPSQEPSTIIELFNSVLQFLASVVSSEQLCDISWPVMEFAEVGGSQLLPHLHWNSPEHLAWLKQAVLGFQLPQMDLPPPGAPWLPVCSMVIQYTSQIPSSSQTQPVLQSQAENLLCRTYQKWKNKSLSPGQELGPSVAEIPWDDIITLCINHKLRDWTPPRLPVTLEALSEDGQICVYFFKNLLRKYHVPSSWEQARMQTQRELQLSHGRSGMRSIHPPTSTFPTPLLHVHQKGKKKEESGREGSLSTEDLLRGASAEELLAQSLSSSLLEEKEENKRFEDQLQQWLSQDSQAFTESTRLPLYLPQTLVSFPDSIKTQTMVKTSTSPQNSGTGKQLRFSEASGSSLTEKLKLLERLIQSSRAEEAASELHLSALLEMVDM

B1: MCM3 protein (other, mouse, UniProt P25206 2-812, looked up)
chain: AGTVVLDDVELREAQRDYLDFLDDEEDQGIYQNKVRELISDNQYRLIVSVNDLRRKNEKRANRLLNNAFEELVAFQRALKDFVASIDATYAKQYEEFYIGLEGSFGSKHVSPRTLTSCFLSCVVCVEGIVTKCSLVRPKVVRSVHYCPATKKTIERRYSDLTTLVAFPSSSVYPTKDEENNPLETEYGLSVYKDHQTITIQEMPEKAPAGQLPRSVDVILDDDLVDKVKPGDRIQVVGTYRCLPGKKGCYTSGTFRTVLIACNVKQMSKDIQPAFSADDIAKIKKFSKTRSKDVFEQLARSLAPSIHGHDYVKKAILCLLLGGVERELENGSHIRGDINILLIGDPSVAKSQLLRYVLCTAPRAIPTTGRGSSGVGLTAAVTTDQETGERRLEAGAMVLADRGVVCIDEFDKMSDMDRTAIHEVMEQGRVTIAKAGIHARLNARCSVLAAANPVYGRYDQYKTPMENIGLQDSLLSRFDLLFIMLDQMDPEQDREISDHVLRMHQYRAPGEQDGDALPLGSSVDILATDDPDFTQDDQQDTRIYEKHDSLLHGTKKKKEKMVSAAFMKKYIHVAKIIKPTLTQESAAYIAEEYSRLRSQDSMSSDTARTSPVTARTLETLIRLATAHAKARMSKTVDLQDAEEAVELVQYAYFKKVLEKEKKRKKASEDESDLEDEEEKSQEDTEQKRKRRKTHAKDGESYDPYDFSEAETQMPQVHTPKTDDSQEKTDDSQETQDSQKVELSEPRLKAFKAALLEVFQEAHEQSVGMLHLTESINRNREEPFSSEEIQACLSRMQDDNQVMVSEGIVFLI
notes: also called MCM3/P1
- binding result: binds
